B1: BsAb1-MCC-Maytansinoid A (bispecific antibody, human IgG4 S228P, kappa)
heavy 1: EVQLVESGGGLAQPGGSLRLSCAASGFSISDYEIHWVRQVPGKGLEWVSGIGSAGNTYYPGAVKGRFTISRENAKNSLYLQVNSLTVGDTAVYYCARVWSPLYYFGLDVWGQGTTVTVSSASTKGPSVFPLAPCSRSTSESTAALGCLVKDYFPEPVTVSWNSGALTSGVHTFPAVLQSSGLYSLSSVVTVPSSSLGTKTYTCNVDHKPSNTKVDKRVESKYGPPCPPCPAPEFLGGPSVFLFPPKPKDTLMISRTPEVTCVVVDVSQEDPEVQFNWYVDGVEVHNAKTKPREEQFNSTYRVVSVLTVLHQDWLNGKEYKCKVSNKGLPSSIEKTISKAKGQPREPQVYTLPPSQEEMTKNQVSLTCLVKGFYPSDIAVEWESNGQPENNYKTTPPVLDSDGSFFLYSRLTVDKSRWQEGNVFSCSVMHEALHNRFTQKSLSLSPGK
heavy 2: not shown
light: not shown
modifications: SMCC-DM1 (M1) conjugate, attachment residues not stated
notes: Antibody-drug conjugate of BsAb1; also called BsAb1 conjugated with M1 (SMCC-DM1)
B2: BsAb1-Tubulysin 1A-LP (Anti HER2 BsAb1-PEG3-N3-Tubulysin 1A-LP) (bispecific antibody, human IgG4 S228P, kappa)
heavy 1: B1 heavy 1
heavy 2: not shown
light: not shown
modifications: deglycosylated (PNGase F); Q295 carries azido-PEG3-amine clicked to Tubulysin 1A-LP
notes: Site-specific antibody-drug conjugate of BsAb1; also called HER2xHER2-M830
B3: BsAb2-Tubulysin 1A-LP (Anti HER2 BsAb2-PEG3-N3-Tubulysin 1A-LP) (bispecific antibody, human IgG4 S228P, kappa)
heavy 1: QVQLVESGGGVVQPGRSLRLSCEASGFTFSGYALHWVRQAPGKGLEWVTVISYDGSDKFYADSVKGRFTISRDNSKNTLYLQMNSLRTEDTALYYCAKDWGTYHWNYGHYNYVMDVWGQGTTVTVSSASTKGPSVFPLAPCSRSTSESTAALGCLVKDYFPEPVTVSWNSGALTSGVHTFPAVLQSSGLYSLSSVVTVPSSSLGTKTYTCNVDHKPSNTKVDKRVESKYGPPCPPCPAPEFLGGPSVFLFPPKPKDTLMISRTPEVTCVVVDVSQEDPEVQFNWYVDGVEVHNAKTKPREEQFNSTYRVVSVLTVLHQDWLNGKEYKCKVSNKGLPSSIEKTISKAKGQPREPQVYTLPPSQEEMTKNQVSLTCLVKGFYPSDIAVEWESNGQPENNYKTTPPVLDSDGSFFLYSRLTVDKSRWQEGNVFSCSVMHEALHNRFTQKSLSLSPGK
heavy 2: not shown
light: not shown
modifications: deglycosylated (PNGase F); Q295 carries azido-PEG3-amine clicked to Tubulysin 1A-LP
notes: Site-specific antibody-drug conjugate of BsAb2; also called H4H17087D-Tubulysin 1A-LP
B4: H4H17325D (BsAb1), HER2 x HER2 bispecific antibody (bispecific antibody, human IgG4 S228P, kappa)
heavy 1: B1 heavy 1
heavy 2: not shown
light: not shown
notes: Human IgG4 bispecific with a common light chain; also called bispecific antibody 1
B5: BsAb2-MCC-Maytansinoid A (bispecific antibody, human IgG4 S228P, kappa)
heavy 1: B3 heavy 1
heavy 2: not shown
light: not shown
modifications: SMCC-DM1 (M1) conjugate, attachment residues not stated
notes: Antibody-drug conjugate of BsAb2; also called BsAb2 conjugated with M1 (SMCC-DM1)
B6: BsAb1-CAMPT1 (Anti-HER2 BsAb1-substituted alkyl amine-(N3)2-CAMPT-1-LP) (bispecific antibody, human IgG4 S228P, kappa)
heavy 1: B1 heavy 1
heavy 2: not shown
light: not shown
modifications: Q295 carries a bis azido-alkyl substituted amine (bisSP1) clicked to CAMPT-1-LP
notes: Antibody-drug conjugate of BsAb1; also called BsAb1-Camp1
B7: BsAb2-CAMPT1 (bispecific antibody, human IgG4 S228P, kappa)
heavy 1: B3 heavy 1
heavy 2: not shown
light: not shown
modifications: Q295 carries a bis azido-alkyl substituted amine (bisSP1) clicked to CAMPT-1-LP
notes: Antibody-drug conjugate of BsAb2; also called BsAb2-Camp1

Tests used:
[1] = target: T1, human HER2 (ErbB2) expressed on the surface of cell lines and primary cells (human, UniProt P04626 23-1255); assay: cell-based or functional assay
[2] = target: T2, hErbB2-MMH (human HER2 ectodomain with C-terminal myc-myc-hexahistidine tag) (human, UniProt P04626 23-652); assay: SPR (MASS-2), ADC captured on anti-human Fc, hErbB2-MMH in solution, 25 C
T2 construct: also called Her2 ECD; Her2 protein
Protocol: (§1) Equilibrium dissociation constants (KD values) for hErbB2.mmh binding to anti-HER2×HER2 antibodies conjugated with either M830 or M1 were determined using a real-time surface plasmon resonance biosensor assay on a MASS-2 instrument. The MASS-2 sensor surface was derivatized by amine coupling with a monoclonal mouse anti-human Fc antibody (REGN2567) to capture anti-HER2×HER2 ADC and parent unmodified antibodies expressed with human constant regions. […] Human hErbB2 was prepared in-house expressing a C-terminal myc-myc-hexahistidine tag (hErbB2-MMH). […] Association of hErbB2-MMH to each of the captured ADCs and monoclonal antibodies was monitored for 3 minutes. Subsequently, hErbB2-MMH dissociation was monitored for 10 minutes in HBS-EP running buffer. Anti-human Fc surface was regenerated by a brief injection of 20 mM H₃PO₄. All binding kinetic experiments were performed at 25° C.
Kinetic association (kₐ) and dissociation (Kd) rate constants were determined by fitting the real-time sensorgrams to a 1:1 binding model using Scrubber 2.0c curve fitting software. All sensorgrams were double referenced by subtracting buffer injection sensorgram signal from the corresponding analyte sensorgram, thereby removing artifacts caused by dissociation of the antibody from the capture surface. Binding dissociation equilibrium constants (KD) and dissociative half-lives (t½) were calculated from the kinetic rate constants as: […]

[3] = target: T1, human HER2 (ErbB2) expressed on the …; assay: cell-based or functional assay; remark: listed apart in the source
[4] = target: T2, hErbB2-MMH (human HER2 ectodomain with …); assay: SPR (MASS-2), antibody captured on anti-human Fc, hErbB2-MMH in solution, 25 C
Protocol: as §1
Kinetic association (kₐ) and dissociation (Kd) rate constants were determined by fitting the real-time sensorgrams to a 1:1 binding model using Scrubber 2.0c curve fitting software. […] Binding dissociation equilibrium constants (KD) and dissociative half-lives (t½) were calculated from the kinetic rate constants as: […]

Binder | IC50 of cell killing, JIMT1 cells (Cell Titer Glow, 6 days) [1] [nM] | IC50 of cell killing, MDAMB361 cells (Cell Titer Glow, 6 days) [1] [nM] | IC50 of cell killing, MDAMB453 cells (Cell Titer Glow, 6 days) [1] [nM] | IC50 of cell killing, SKBR3 cells (Cell Titer Glow, 6 days) [1] [nM] | IC50 of cell killing, ZR751 cells (Cell Titer Glow, 6 days) [1] [nM] | Antigen Bound (RU) [2] [RU] | Kd [2] [nM] | t1/2 [2] [min] | IC50 of cell killing, MDAMB231 cells (Cell Titer Glow, 6 days) [3] [nM] | IC50 of cell killing, MDAMB468 cells (Cell Titer Glow, 6 days) [3] [nM] | IC50 of cell killing, T47D cells (Cell Titer Glow, 6 days) [3] [nM] | IC50 of cell killing, primary breast (mammary epithelial) cells (Cell Titer Glow, 6 days) [3] [nM] | IC50 of cell killing, primary lung epithelial cells (Cell Titer Glow, 6 days) [3] [nM] | IC50 of cell killing, primary myocardial cells (Cell Titer Glow, 6 days) [3] [nM] | IC50 of cell killing, primary prostate epithelial cells (Cell Titer Glow, 6 days) [3] [nM] | koff [2] [s⁻¹] | kon [2] [M⁻¹ s⁻¹] | t1/2 [4] [min]
B1 | 7 | 0.05 | 0.1 | 0.02 | 6 | 93.6 | 0.512 | 32.7 |  |  |  |  |  |  |  |  |  | 
B2 | 0.07 | 0.003 | 0.02 | 0.004 | 0.06 | 114 |  | 33.5 | 40 | 50 | 8 | 25 | > 67 | 9 | 30 |  |  | 
B3 |  |  |  |  |  | 72.7 | ≤ 0.0431 | ≥ 1160 | 50 | 67 | 8 | 20 | > 67 | 30 | > 67 | ≤ 1e-05 | 232000 | 
B4 |  |  |  |  |  |  |  |  |  |  |  |  |  |  |  |  |  | 29
B5 |  |  |  |  |  | 82.8 | 0.0469 | 1130 |  |  |  |  |  |  |  | 1.02e-05 | 218000 | 
B6 |  |  |  |  |  | 117 | 0.472 | 41 |  |  |  |  |  |  |  |  |  | 
B7 |  |  |  |  |  | 77 | ≤ 0.0388 | 1160 |  |  |  |  |  |  |  | ≤ 1e-05 | 258000 | 

From patent US20240254255A1 (Regeneron, published 2024)
